This series can be described thus: label from the status in PepcDB records.
For “MKNFLMKKIIYSGVLSIHFILAFVVNSVGAAQLKKSSTLSMNVLFITIDDLNNDLGAYGHHLVKSPNIDALAKKGIRFDKAYSQSPMCTPSRSSFMTGLYPDQTGIIAHGSHTQMTAHFREHIPKVTTLPQLFKNNGYFSGRVGKIYHQGVPNQIGTSGADDAASWHETVNPIGLDKDVEDKIIAFNEKALVRQSFGGVLSFLAIGDDDKAHTDGKVATETINMIKDHHPDKTGKPFFIGAGFYRPHTPFVAPKKYFDLYPLEKIKPYIAPKNDRKDIPDIALQDREGQVGLTLNQRKQIIQGYYAAVSYVDAQVGRVLDALKQQDLSDNTIVVFLSDHGYELGQHGLWQKGSLFEGSARAPLIIYAPNVKDNGRVVTSPVELVDIYPTLAKLTGLVAPEYLAGKDLTPALNDVDFQVRKGAYSAILNRNKGDNNQFAFTKIRGHSIRTNRYRYTEWGEGYFGAELYDHKNDPQELKNLADKVSLESVRIKMKWLLNDAMDDAQKRIKSIE”, the protein production entry is recorded as “failed”.
The entry for “MRKDILYMLLLLLITDLSIIADIPVLRQSLPFIFFTIIPGYLLLGILKFKVELIDGSVIAAALSIFLMMMTGLIINSFYPLIMRPLSLLPILSAINLLIIALMVIYHLRGEEPLNLKASGNLSTALSSLLFPVLTVIGSYLMNKYSVNTVLLLVLLFIPVYIILLEVFKKKIGPATYPVAIFSISLSLLIMNGLPSNYLIGRDIHWEFYLFRKALMAHHWDMHVGSYNAYNACLSVTVLPVIYKVLLNVPEVYIFKFYYGFIGALMPLPVYLISERILKRSDYGFYATLLFIFQFSFIYILGWCRQLVALLFFAAAVMVLTGDMRRSHKKLLFVVFMVGTVLSHYTTAYVFFFLVALIPILVRVMKRLKVPDDSRGFFAASLAVLFFVVVFAWYAQATGAPFKSAVSFFTKTLRSMSEFFSADMRNNSELAVVGIGISNFPNLLSTLVHDTVFALIGAGALAVIFKEEYRQGREYLAAVILCMGILVAFIALPFVSKGYGGPRLFTQLLVILAPLFITGIDALTGFIGRVRWRIPSIIVLLILLFSCTTYLNYHFAGIPYSYAYDDGGERRYETFIYDNEVTGALWLSNHYNETSVIHGDKMIYSRIIYGFSTYPRVDREFFNGTDTETGGYVYLTHFNLYQRLVFLDYPLAPPRVVNGALKLDNVESINNYKDLIVNMSTIYDNGGSRVLIVA” is “failed”; for “STHKLIRQDNSELIYYLDKQAEHNKTLLVLMQGSDCNSIKNNTFIQETFGRWLPSSDVLMVEKYGITAQLTYSDDNGEREDCPKNYKLHDNPNQRLADYLAVLDKLSPNYTNIVLLGGSEGATMVHLVVAERHDISAAIALNGGGRFFLDDVLYNIRNTTPKEHVEEAINSFQQLANAIITNQIGDEQFVSEHSKLWWQQYLAIDLLEVIKRNTQTPVLIVQTLDDINVDVAAFHQLSQEITQPNVTFIKYDKLNHGFYNQQGERLTGKVVQDIQQWYAQYNK” it is “not failed”; for “MAGKEFKQRIRQALNNASLRGALGRFADSYVVSREEVYAGRDFESLRQRIAAIKADAAGRYEELADRFSRAVEARGGKVFRAKDAAAAREYIYQVAKEHGVTEIVKSKSFASEEIHLNEFLQERGINPYETDLAEWILQLMPGERPSHMVMPAIHLPKEEVARVFSRYLGEPVEPDIKNMVRIARRELRKKFLTAGMGISGANIAVAETGTIVLCTNEGNARLTTTVPPVHVAIVGYEKLVPSIKDIVPILEALPRSGTAQPITSYVTMITGPVPAWRGEGEGIKELHVVLLDNGRTRMAADPVFKEALQCIRCASCTNVCPVFQLVSGQVYGYIYNGGIGSVLTAFFNSLEDAVDPQSLCIGCRRCAEVCPAKINIPDLVLKLRERVVTKQGLSSGYRIALHGIVAKPKLMHTLLRAASRLQGPVTHGQPLIRHLPLFFSNLTSGRSLPAIAKEPLRDRVKRLEARTGRPRLKAAFYSGCVIDFAYPEIGEAVYKVLGREGVQVTFPQGQACCGAPAVYAGDRETAVKLAKQNITALEEARADVVVTACPTCAVALKKDFPELLAGEPAWEERARALAKKVKDFTELVHELTGGQGKKVKQAKKSGSGAVKVTYHDSCHFKRHLGLDQVARQVLKEQPGVELVEMQESDRCCGFGGSYSIKYPEISAPILERKLKNITESGAQVVAADCPGCVLQLRGGLDQKGSSIKVKHTAEVLAALENLQGGGNSK” it is “failed”.
Take “AIAASGKRKGLSFDDKKTRLLELFNETCDFYTLKELEKIAPKLKGIITQSVKDVLQSLVDDDLVNSDKCGVQTIYWCLPSEAVAKRQRRLDALQQQLAEKRQKLTALQRQLVQVQAGREDSVERTAVLERLAACEAAWRERQRTLESYLECDPDVLAQRETETKTLIEQANRWTDNLYVIRSYVQRNLGVDLDLFDQQFELKPALQYLE”: the protein production result is listed as “failed”.
In the case of “MPHVRPSNAWRFLRTLWLGAWLAGWALLAQAQQLAPVPEFGARVVDQSGVLDAAQRQRLEAQLAALEQRKGAQVAVLIVPSTAPETIEQYATRAFEKWKIGRDKVDDGVLLLMASDDRALRIEVGYGLEGAIPDSAAGRIINEYIVPRLRAGDWPGAVQAGVTALERRIEGEELPPPAASGRDEGSRLAGIRGWLGENGIAALVVLLILPGPIAAALAGVGVAIYMQSISAGLAMALLVLGIKVIIKALPSGGGGGGGGGGGSGGGGFGGWRGGSRGGSGSGGFGGFRGGGGGRSGGGGASGRWLEHHHHHH”, the protein production entry is “failed”.
Consider “MIEFDNLTYLHGKPQGTGLLKANPEDFVVVEDLGFEPDGEGEHILVRILKNGCNTRFVADALAKFLKIHAREVSFAGQKDKHAVTEQWLCARVPGKEMPDLSAFQLEGCQVLEYARHKRKLRLGALKGNAFTLVLREVSNRDDVEQRLIDICVKGVPNYFGAQRFGIGGSNLQGAQRWAQTNTPVRDRNKRSFWLSAARSALFNQIVAERLKKADVNQVVDGDALQLAGRGSWFVATTEELAELQRRVNDKELMITAALPGSGEWGTQREALAFEQAAVAAETELQALLVREKVEAARRAMLLYPQQLSWNWWDDVTVEIRFWLPAGSFATSVVRELINTTGDYAHIAE”, for which the protein production result is on record as “not failed”.
Next, “MLKILVRLYLVIIVAYAGALLFIPDTIVGLFRDRFMAYNLDQAKGVQALIVRQFRQAPREQWPAVEQELASDFAPLELQLLRRDQAGLSDEEQARLEQGLYAVRIAEWGYYETVLAPLDKEWLIRLHSPPDPLDINVLSWGVTVLIGAAMLGCLLLWVWPHWRDLERLKETARRLGQGQMAERTHISPHSNIGELAGVFDTMASDLERHVNQQRELLNAVSHELRTPLTRLDFGLVLLFDEVPPASRKRLLELVGHVRELDELVLELLSYSRLYNADQARERVEVSLLELVDSVLGGFAEELDGRGIQWEVRAEGELPRFVLDPRLTARAVQNLVRNAMRYCDESLLLRLRLEADGACLLTVEDDGIGVPVEERERVFQPFYRLDRSRDRNTGGFGLGLAISRRAIEGQGGTLTLAQSALGGAQFRIRLPAGG”: “failed”; “MHVLTLDLAPVTPKDAPLLHRVFHLSPSYFALIGMELPTLEDVVRDLQTLEVDPRRRAFLLFLGQEPVGYLDAKLGYPEAEDATLSLLLIREDHQGRGLGRQALERFAAGLDGVRRLYAVVYGHNPKAKAFFQAQGFRYVK”: “failed”; “MPDGWRKMGVLVFYDLPVVSPEQRLAAVRFHKFLLADGFERMHYSIYARYCGSMERAATYERRVEQALPAVGHVNLLKLTDRQMVGMRKWIRGNYRAPENAEFVPPAQYQLFLEHHHHHH”: “failed”.
Regarding “MARLIVNALVSVPLAEIEIGFVRSGGAGGQNVNKLATAAHLRFDIAASSLPETCKTRLLDHRDRRMTAEGIIVIKAQRFGTQEKNREDALARLRGLILQALAQRRPRKPTRPTLAAKKKRLDEKTRHGEIKRLRRRIGDLEHHHHHH”, the protein production result is on record as “failed”.
For “MRELNRLSEEITHILAAGEVVERPASCLKEVIENSIDAGASLIDIKLEKGGIKKIEVYDNGKGIHSDDIEYVFERHTTSKIKSVDDIFKITTMGFRGEALCAISSVSKVTLISRHYEQEQGCKVEVEGGKVLSKTIYPFEKGTRITIEDLFYNTPARLKFLKSPSAEQKYCIEVVEKIAICYPEISFRMQVDNKRQLFTPGDSKVESAIASVFGSEILKNLIDFSHQEEGLKVWGFFVNPVLSKSTRSGYHFYVNRRFIRSKLLSTCIDEAFKNSILTGRFPIVFLFIEINPIDIDVNVHPAKLEIKFKDERYVYNTVYKTVSSTLQSEKMIPKPTLDNLYLPQSVQDVKMVRNLWSYTQEQQSKEKAFQEDFNEFLKIEEQLDFSKVEVGKESKDVITVFSEEFNVETYKIVGYAFDTYIIVQKEDSLYLIDQHAVHERRLFELLKEEIFRNKIQRQILLSPIVIELPISQKEFALENVHIFEKLGFEIDDFGKNEIVVRTYPLLFEGAVDKFFILDIIEMIYNESVEKGITHFSEELLKKIACRAAVKGNMNISDLEKEEIVKLVLVEKKIFNCPHGRPVVIEIQKREIEKMFKRIV”, the protein production entry was “failed”.
Consider “MHEFLKAFKDAFPHTISILLGYLLMGMTFGMLLVQQGYDYKVALFMSLFIYAGAVQFVAITLLSAQASLMNVVIVSLLVNARQTCYALSMLDRFKNTKWRLPYLAHALTDETFALLNLYAPKEGVSEKDFIFSISLLNHSYWIFGSLVGSLVGSHFSFDTQGMEFVMTAIFIVLFMEQYKRTTNHKNAWLGIVIAVVCLALFGTEYFLLIALVLMVLALMLFRKQLEC”, for which the protein production entry is “failed”.
For “MVNEYKAHSSFILKVVITLIGYWIASILAIIIYSMFFKIETNTFLLCLLLPTPIIWFNILIGMGLTYRCMENLTIYDKHKLWCVFVRDLTLTILATILATLTTMELYQIEHPLKPIEFVFIVGLVLIVGFTIITTLIIKYLKIIKNLKKISKN”, the protein production result is reported as “failed”.
For “MPEHTPAPTPHRAVYGFAFYMLFTVLFLVYVTWALLPVEFGLHSYLPDKYFAVFVPFLVLVFAWFFAFLIYPAINLSMTVDVDSIASVVDPKLALPKGTEFTSWSQLQKGKVSQDSASKKASPVNCNLCRTFHQPVTRAPIPPLRFLDLQEVNTAYYN”, the protein production result is listed as “failed”.
For “MKRTIFLLMSILLLLTACGDGHKQTSSDKEQSEHKDNHNKNQVKQIATDKKVQGDNYRTILPFKESQARGLLQDNMANGYNGEDFESGLLELSKEIFPTNKYLYQDGQYLDKKTINAYLDPKYTKKEIDKMSEKEKKSKNANENLGLNPSHNGETDEEKIAKNSPAYLSNILEQDFYGNSDSKGKNIKGMTIGLAMNSVYYYKKEKDGETFSKDLSDKEIEKQGKQMASEMLSRLRENSDLKDIPIHFAIYKQSSQDSITPGEFIVGTTVEEGKTKINSWDNINEKAALIPSSTAADYDETLNNNFKQFNDNLQSYFSNFTQAVGKVKFVNKKAKQLTVDLPIDYYGQAETIGITQYVTEQAEKYFDKLDEYEIRIKDGNTPRALISKTKDDKEPQVHIYHN”, the protein production entry is recorded as “failed”.
As to “MTGKPLTDYVALGFTALERGDCQEAVNIFRRAQETGPTARSFVGLGLAFHRLGDPPAARWAFAKALDLEPADRDANEWIERIGRPAVPARTSGGRGCRFRAGEDFLQIKENGSWRRFFIKGINLGLGLPGYFPGEYPIHRETYRRWFRLMGELGVNSLRVYAVQSPGFYEALADHNEQGGRLFLFQGIWLELPEDGDFRGRDFLAYAHRQIREAVDSVCGSADFPERPGLPHGSYRRDVSPWTAAYVVGREWESCAVRAFNGRYGRKRGGFAGQFLKVDDGLPFEQWAAEICDYLQSYEHATYDCTHPVTTINWPTLDPLTHPSESTYEEGLIRQGFQVNVDVCNEDEDVETFDPALIASRQGAGFFATYHVYPYYPDFLNNDFLDVENPYREYLKRLRRHHGRQPVVIAEFGVPSSREATHWQRDGWHHGGHDEVSQGKINGYMMEAIRDAGLAGGMLFSWFDEWFKRNWVFLPYELPAERNPFWFNHQDAEQTYGLMAAYPGYPGKVVTLAGRREEWRDASLLQEKRGGAPLHRFGDGRDGARTLVRLSARHDEGFFYLCLETAEPVDFSAAHYLIGLNTCGAKAGETLLPFDTNARSPLGLTFLIHLAGEGASRILVSRFYDKYLNEGLPVRPVPSDTGEWVVMQNITNHRRISKDGTRFYPSRVFSMSGLRFGSLDPQSPRFDSLADWHVSGTLIELRLPWGLLNITDPSSRQVLWMAEQGGKTHTTDGIAAIACSYRPSGEGLAARPTGGRTNLADSLPAGLGSDAVRRYQWERWNHPLYHTYLKRSYYLYRDVLDRMPE”, the protein production result is reported as “failed”.
